Experimental data reported in patent US20260125472A1 (HEFEI TG IMMUNOPHARMA, published 2026).

Tests used:
[1] = molecular target: T1, PDL1 protein (UniProt Q9NZQ7 19-238); test: ELISA, coated PDL1 protein, OD450 [panel A]
T1 construct: Bought recombinant protein
Experimental: (3) PDL1 protein (purchased from Acro) was diluted to 2 μg/ml with PBS buffer, added to a 96-well plate at a volume of 100 μL/well, and placed at 4° C. overnight. The PBS buffer in the 96-well plate was aspirated, and the plate was washed 6 times with PBST (pH 7.2 PBS containing 0.10% Tween 20) buffer. Then, PBS/10% BSA was added at 200 μL/well and incubated at 37° C. for 2 h for blocking. The blocking solution was removed, and the plate was washed six times with PBST. Then, the to-be-tested bispecific antibodies serially diluted with PBST/0.05% BSA, Cross3×PDL1, Cross303×PDL1, Cross307×PDL1, Cross308×PDL1, Cross309×PDL1, Cross310×PDL1, Cross311×PDL1, Cross312×PDL1, Cross313×PDL1, Cross314×PDL1, Cross316×PDL1, Cross317×PDL1, Cross318×PDL1, Cross323×PDL1, Cross325×PDL1, Cross326×PDL1, and control IgG1LALA (purchased from Bio-Tech) were added at 100 μL/well, and incubated at 37° C. for 1 h. The reaction system was removed, and the plate was washed 6 times with PBST. Then, the cells were incubated at 37° C. for 1 h with HRP (horseradish peroxidase)-labeled anti-human secondary antibody (Fab specific) (purchased from Sigma) serially diluted with PBST/0.05% BSA at 100 μL/well. After the plate was washed six times with PBST, TMB (tetramethylbenzidine) was added at 80 μL/well and incubated at room temperature for 3 min. 4 M sulfuric acid was added at 80 μL/well to terminate the reaction. The absorbance was read at 450 nm using a microplate reader.

[2] = molecular target: T2, PDL1 on A-375 melanoma cells, HCT-15 colorectal cancer cells and A549 lung cancer cells (UniProt Q9NZQ7 19-290, limits assumed); test: flow cytometry, A-375 cells, binding ratio % [panel A]
T2 construct: whole, on cells
T2 sequence (Q9NZQ7 19-290 limits assumed): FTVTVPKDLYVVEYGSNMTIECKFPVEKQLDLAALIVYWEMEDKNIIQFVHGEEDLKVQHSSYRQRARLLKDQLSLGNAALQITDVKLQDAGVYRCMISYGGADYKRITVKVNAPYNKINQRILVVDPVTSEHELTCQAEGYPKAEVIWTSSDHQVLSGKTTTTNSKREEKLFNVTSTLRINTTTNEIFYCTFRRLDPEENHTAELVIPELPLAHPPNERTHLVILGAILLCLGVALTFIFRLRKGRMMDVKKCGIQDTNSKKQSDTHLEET
Experimental: (§1) (2) The tumor cells were diluted to 2×10⁶/ml with PBS and added to a 1.5 ml EP tube at a volume of 100 μl/tube, and goat serum was added thereto at 10 μl/tube. The cells were blocked at 4° C. for 30 min. The serially diluted bispecific antibodies, Cross3×Trop2, Cross303×Trop2, Cross307×Trop2, Cross308×Trop2, Cross309×Trop2, Cross310×Trop2, Cross311×Trop2, Cross312×Trop2, Cross313×Trop2, Cross314×Trop2, Cross316×Trop2, Cross317×Trop2, Cross318×Trop2, Cross323×Trop2, Cross325×Trop2, Cross326×Trop2, and Cross3×PDL1, Cross303×PDL1, Cross307×PDL1, Cross308×PDL1, Cross309×PDL1, Cross310×PDL1, Cross311×PDL1, Cross312×PDL1, Cross313×PDL1, Cross314×PDL1, Cross316×PDL1, Cross317×PDL1, Cross318×PDL1, Cross323×PDL1, Cross325×PDL1, Cross326×PDL1, and control hIgG1LALA (purchased from Bio-Tech) were added and incubated at 4° C. for 30 min. 1 ml of PBS was added to the EP tube, followed by centrifugation at 3500 rpm for 5 min at 4° C. The supernatant was discarded, and the cells were washed again with PBS. After centrifugation, the supernatant was completely discarded, and the cells were resuspended with PBS at 100 μl/tube. Alexa-647-labeled goat anti-human IgG secondary antibody (purchased from Jackson lab) was added at 1 μl/tube and incubated at 4° C. in the dark for 30 min. The cells were washed twice with PBS, and the supernatant was completely discarded after centrifugation. The cells were resuspended with PBS at 200 μl/tube and assay was performed using the flow cytometry.

[3] = molecular target: T2, PDL1 on A-375 melanoma cells, HCT-15 …; test: flow cytometry, A549 cells, MFI [panel B]
Procedure, shortened: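 Cells were blocked with goat serum at 4° C for 30 min, then incubated with serially diluted bispecific antibodies or hIgG1LALA control at 4° C for 30 min. Bound antibody was detected with Alexa-647 anti-human IgG (4° C, 30 min, dark) and read by flow cytometry.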

[4] = molecular target: T3, CD3E&D protein (UniProt P04234 22-105); test: ELISA, coated CD3E&D protein, OD450
T3 construct: Purchased from Acro; also called CD3 E&D antigens; CD3E&D antigen protein
T3 sequence (chain, as listed by the source limits assumed, chain 1 of 2): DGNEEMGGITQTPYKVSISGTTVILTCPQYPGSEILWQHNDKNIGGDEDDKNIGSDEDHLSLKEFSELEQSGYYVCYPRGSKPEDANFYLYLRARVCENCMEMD
T3 sequence (P04234 22-105 limits assumed, chain 2 of 2): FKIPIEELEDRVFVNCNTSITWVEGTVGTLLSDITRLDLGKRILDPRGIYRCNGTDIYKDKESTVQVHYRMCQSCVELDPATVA
From the text: (§2) In this example, the binding properties of the CD3×Trop2 and CD3×PDL1 bispecific antibody (the production method and the amino acid sequences of the heavy and light chains were shown in Example 1) were detected by using ELISA. The CD3E&D, Trop2, or PDL1 protein was coated onto 96-well plates by inventors, and the strength of the signal after the addition of the antibody was used to determine the binding properties of the antibody and the corresponding protein.
(1) CD3E&D protein (purchased from Acro) was diluted to 2 μg/ml with PBS buffer, added to a 96-well plate at a volume of 100 μL/well, and placed at 4° C. overnight. The PBS buffer in the 96-well plate was aspirated, and the plate was washed 6 times with PBST (pH 7.2 PBS containing 0.1% Tween 20) buffer. Then, 200 μL/well PBS/10% BSA was added and incubated at 37° C. for 2 h for blocking. The blocking solution was removed, and the plate was washed 6 times with PBST. […] The absorbance was read at 450 nm using a microplate reader.

[5] = molecular target: T4, Trop2 protein (UniProt P09758 27-274); test: ELISA, coated Trop2 protein, OD450
T4 construct: Bought recombinant protein; also called Trop2-Biotin protein (biotin-labelled, bridging ELISA)
T4 sequence (looked up): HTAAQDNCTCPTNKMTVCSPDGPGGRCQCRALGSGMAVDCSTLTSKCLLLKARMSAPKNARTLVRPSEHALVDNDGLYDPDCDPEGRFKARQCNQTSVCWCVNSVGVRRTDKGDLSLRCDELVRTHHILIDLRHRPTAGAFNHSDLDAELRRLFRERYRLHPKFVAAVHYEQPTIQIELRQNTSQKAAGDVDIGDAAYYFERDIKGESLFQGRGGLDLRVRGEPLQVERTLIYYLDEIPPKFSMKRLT
From the text: as §2
(2) Trop2 protein (purchased from Acro) was diluted to 2 μg/ml with PBS buffer, added to a 96-well plate at a volume of 100 μL/well, and placed at 4° C. overnight. The PBS buffer in the 96-well plate was aspirated, and the plate was washed 6 times with PBST (pH 7.2 PBS containing 0.1% Tween 20) buffer. Then, 200 μL/well PBS/10% BSA was added and incubated at 37° C. for 2 h for blocking. The blocking solution was removed, and the plate was washed six times with PBST. Then, the to-be-tested bispecific antibodies, Cross3×Trop2, Cross303×Trop2, Cross307×Trop2, Cross308×Trop2, Cross309×Trop2, Cross310×Trop2, Cross311×Trop2, Cross312×Trop2, Cross313×Trop2, Cross314×Trop2, Cross316×Trop2, Cross317×Trop2, Cross318×Trop2, Cross323×Trop2, Cross325×Trop2, Cross326×Trop2, and control IgG1LALA (purchased from Bio-Tech), serially diluted with PBST/0.05% BSA, were added at 100 μL/well and incubated at 37° C. for 1 h. The reaction system was removed, and the plate was washed 6 times with PBST. Then, HRP (horseradish peroxidase)-labeled anti-human secondary antibody (Fab specific) (purchased from Sigma) diluted with PBST/0.05% BSA at 100 μL/well. After the plate was washed six times with PBST, TMB (tetramethylbenzidine) was added at 80 μL/well, and incubated at room temperature for 3 min. 4 M sulfuric acid was added at 80 μL/well to terminate the reaction. The absorbance was read at 450 nm using a microplate reader.

[6] = molecular target: T5, Trop2 on A-375-Trop2 melanoma cells (UniProt P09758 27-323, limits assumed); test: flow cytometry, A-375-Trop2 cells, MFI [panel B]
T5 construct: whole, on cells
T5 sequence (looked up): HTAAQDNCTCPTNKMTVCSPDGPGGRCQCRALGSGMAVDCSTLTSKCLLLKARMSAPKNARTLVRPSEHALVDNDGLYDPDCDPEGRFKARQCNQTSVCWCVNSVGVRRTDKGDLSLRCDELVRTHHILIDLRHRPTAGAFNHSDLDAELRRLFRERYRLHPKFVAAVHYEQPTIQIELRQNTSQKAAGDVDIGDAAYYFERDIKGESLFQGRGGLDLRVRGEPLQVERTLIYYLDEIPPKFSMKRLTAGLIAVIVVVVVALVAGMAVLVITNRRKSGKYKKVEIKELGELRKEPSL
Experimental: as §1

T1 sequence (Q9NZQ7 19-238 limits assumed): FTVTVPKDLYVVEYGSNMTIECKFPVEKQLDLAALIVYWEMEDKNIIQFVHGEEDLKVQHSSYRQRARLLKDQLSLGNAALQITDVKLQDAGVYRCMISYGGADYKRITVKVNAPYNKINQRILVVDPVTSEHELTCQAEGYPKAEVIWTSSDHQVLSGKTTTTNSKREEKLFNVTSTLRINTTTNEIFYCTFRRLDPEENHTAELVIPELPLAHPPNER

B1: Cross309×PDL1 (bispecific antibody, human IgG1, kappa, L234A L235A)
scFv: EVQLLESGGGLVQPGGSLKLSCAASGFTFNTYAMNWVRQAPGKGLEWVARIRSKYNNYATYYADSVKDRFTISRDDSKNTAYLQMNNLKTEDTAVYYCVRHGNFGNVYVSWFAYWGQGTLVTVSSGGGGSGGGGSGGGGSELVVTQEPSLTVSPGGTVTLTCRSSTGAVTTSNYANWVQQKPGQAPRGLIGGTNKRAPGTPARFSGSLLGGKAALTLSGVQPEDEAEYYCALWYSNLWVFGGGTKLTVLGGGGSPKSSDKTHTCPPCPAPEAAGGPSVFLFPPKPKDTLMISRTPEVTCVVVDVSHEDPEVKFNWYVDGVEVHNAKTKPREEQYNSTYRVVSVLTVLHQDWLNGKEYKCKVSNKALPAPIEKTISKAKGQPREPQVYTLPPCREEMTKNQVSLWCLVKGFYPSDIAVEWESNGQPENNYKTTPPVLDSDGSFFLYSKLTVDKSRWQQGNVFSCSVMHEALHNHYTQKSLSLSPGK
heavy: QVQLVQSGAEVKKPGASVKVSCKASGYSFTGYYMHWVRQAPGQGLEWIGRINPYNGATTYSQNFKDRATMTVDTSISTAYMELSRLRSDDTAVYYCVPTGMGYFLMDYWGQGTLVTVSSASTKGPSVFPLAPSSKSTSGGTAALGCLVKDYFPEPVTVSWNSGALTSGVHTFPAVLQSSGLYSLSSVVTVPSSSLGTQTYICNVNHKPSNTKVDKKVEPKSCDKTHTCPPCPAPEAAGGPSVFLFPPKPKDTLMISRTPEVTCVVVDVSHEDPEVKFNWYVDGVEVHNAKTKPREEQYNSTYRVVSVLTVLHQDWLNGKEYKCKVSNKALPAPIEKTISKAKGQPREPQVCTLPPSREEMTKNQVSLSCAVKGFYPSDIAVEWESNGQPENNYKTTPPVLDSDGSFFLVSKLTVDKSRWQQGNVFSCSVMHEALHNHYTQKSLSLSPGK
light: DIQLTQSPSFLSASVGDRVTITCKASQDVGSAVVWYQQKPGKAPKLLIYWASTRHTGVPSRFSGSGSGTEFTLTISSLQPEDFATYFCQQFTSYPTFGQGTKLEIKRTVAAPSVFIFPPSDEQLKSGTASVVCLLNNFYPREAKVQWKVDNALQSGNSQESVTEQDSKDSTYSLSSTLTLSKADYEKHKVYACEVTHQGLSSPVTKSFNRGEC
Q: What does the source list for B1?
A: EC50 (read off the curve) [1]: ~0.2 µg/mL; EC50 (read off the curve) [2]: ~0.4 µg/mL; EC50 (read off the curve) [3]: ~1 µg/mL

B2: Cross317×Trop2 (bispecific antibody)
scFv: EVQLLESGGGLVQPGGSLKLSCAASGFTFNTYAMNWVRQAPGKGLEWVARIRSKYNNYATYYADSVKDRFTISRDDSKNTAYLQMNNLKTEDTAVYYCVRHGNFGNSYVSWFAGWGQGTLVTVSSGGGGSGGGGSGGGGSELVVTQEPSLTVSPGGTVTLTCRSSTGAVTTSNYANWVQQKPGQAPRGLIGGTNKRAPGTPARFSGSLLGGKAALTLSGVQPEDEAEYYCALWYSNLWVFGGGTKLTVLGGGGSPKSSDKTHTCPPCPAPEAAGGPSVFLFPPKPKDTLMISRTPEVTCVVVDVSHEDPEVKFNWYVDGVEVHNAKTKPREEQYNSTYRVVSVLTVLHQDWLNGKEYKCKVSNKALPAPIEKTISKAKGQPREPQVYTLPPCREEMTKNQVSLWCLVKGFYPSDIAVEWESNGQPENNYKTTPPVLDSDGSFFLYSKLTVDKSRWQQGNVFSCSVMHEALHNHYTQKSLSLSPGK
heavy: QVQLQQSGSELKKPGASVKVSCKASGYTFTNYGMNWVKQAPGQGLKWMGWINTYTGEPTYTDDFKGRFAFSLDTSVSTAYLQISSLKADDTAVYFCARGGFGSSYWYFDVWGQGSLVTVSSASTKGPSVFPLAPSSKSTSGGTAALGCLVKDYFPEPVTVSWNSGALTSGVHTFPAVLQSSGLYSLSSVVTVPSSSLGTQTYICNVNHKPSNTKVDKKVEPKSSDKTHTCPPCPAPEAAGGPSVFLFPPKPKDTLMISRTPEVTCVVVDVSHEDPEVKFNWYVDGVEVHNAKTKPREEQYNSTYRVVSVLTVLHQDWLNGKEYKCKVSNKALPAPIEKTISKAKGQPREPQVCTLPPSREEMTKNQVSLSCAVKGFYPSDIAVEWESNGQPENNYKTTPPVLDSDGSFFLVSKLTVDKSRWQQGNVFSCSVMHEALHNHYTQKSLSLSPGK
light: DIQLTQSPSSLSASVGDRVSITCKASQDVSIAVAWYQQKPGKAPKLLIYSASYRYTGVPDRFSGSGSGTDFTLTISSLQPEDFAVYYCQQHYITPLTFGAGTKVEIKRTVAAPSVFIFPPSDEQLKSGTASVVCLLNNFYPREAKVQWKVDNALQSGNSQESVTEQDSKDSTYSLSSTLTLSKADYEKHKVYACEVTHQGLSSPVTKSFNRGEC
Q: With B2 as the binder, how does the “EC50 (read off the curve)” value [4] read?
A: The value was about 1 µg/mL.

Q: What about the “EC50 (read off the curve)” value [5] of the same binder?
A: The value was about 0.008 µg/mL.

Q: And the “EC50 (read off the curve)” value [6]?
A: The value was about 1 µg/mL.
